Source: patent US20240018502A1

Target: plasma purified human complement protein C3 (human) (UniProt P01024)
Assay: cell-based or functional assay

Sequence of plasma purified human complement protein C3 (human) (P01024 23-667, chain 1 of 2): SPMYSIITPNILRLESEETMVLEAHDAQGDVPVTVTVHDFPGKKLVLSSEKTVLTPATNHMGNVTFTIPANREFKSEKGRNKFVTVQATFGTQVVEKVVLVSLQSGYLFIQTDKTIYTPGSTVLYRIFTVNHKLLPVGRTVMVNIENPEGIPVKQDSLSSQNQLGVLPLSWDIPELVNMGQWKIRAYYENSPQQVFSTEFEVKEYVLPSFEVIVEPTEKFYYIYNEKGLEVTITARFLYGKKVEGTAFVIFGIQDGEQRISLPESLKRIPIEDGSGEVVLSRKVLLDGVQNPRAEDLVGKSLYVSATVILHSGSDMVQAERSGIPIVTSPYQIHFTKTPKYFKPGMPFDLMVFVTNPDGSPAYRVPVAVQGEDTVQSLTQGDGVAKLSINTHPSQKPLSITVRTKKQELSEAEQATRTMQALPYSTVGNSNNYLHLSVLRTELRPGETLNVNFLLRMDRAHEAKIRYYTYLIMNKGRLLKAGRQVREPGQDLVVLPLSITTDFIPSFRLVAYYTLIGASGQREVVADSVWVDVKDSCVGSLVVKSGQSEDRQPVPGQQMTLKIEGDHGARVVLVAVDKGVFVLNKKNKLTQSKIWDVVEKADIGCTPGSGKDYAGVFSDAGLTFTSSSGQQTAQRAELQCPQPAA
Sequence of plasma purified human complement protein C3 (human) (P01024 672-1663, chain 2 of 2): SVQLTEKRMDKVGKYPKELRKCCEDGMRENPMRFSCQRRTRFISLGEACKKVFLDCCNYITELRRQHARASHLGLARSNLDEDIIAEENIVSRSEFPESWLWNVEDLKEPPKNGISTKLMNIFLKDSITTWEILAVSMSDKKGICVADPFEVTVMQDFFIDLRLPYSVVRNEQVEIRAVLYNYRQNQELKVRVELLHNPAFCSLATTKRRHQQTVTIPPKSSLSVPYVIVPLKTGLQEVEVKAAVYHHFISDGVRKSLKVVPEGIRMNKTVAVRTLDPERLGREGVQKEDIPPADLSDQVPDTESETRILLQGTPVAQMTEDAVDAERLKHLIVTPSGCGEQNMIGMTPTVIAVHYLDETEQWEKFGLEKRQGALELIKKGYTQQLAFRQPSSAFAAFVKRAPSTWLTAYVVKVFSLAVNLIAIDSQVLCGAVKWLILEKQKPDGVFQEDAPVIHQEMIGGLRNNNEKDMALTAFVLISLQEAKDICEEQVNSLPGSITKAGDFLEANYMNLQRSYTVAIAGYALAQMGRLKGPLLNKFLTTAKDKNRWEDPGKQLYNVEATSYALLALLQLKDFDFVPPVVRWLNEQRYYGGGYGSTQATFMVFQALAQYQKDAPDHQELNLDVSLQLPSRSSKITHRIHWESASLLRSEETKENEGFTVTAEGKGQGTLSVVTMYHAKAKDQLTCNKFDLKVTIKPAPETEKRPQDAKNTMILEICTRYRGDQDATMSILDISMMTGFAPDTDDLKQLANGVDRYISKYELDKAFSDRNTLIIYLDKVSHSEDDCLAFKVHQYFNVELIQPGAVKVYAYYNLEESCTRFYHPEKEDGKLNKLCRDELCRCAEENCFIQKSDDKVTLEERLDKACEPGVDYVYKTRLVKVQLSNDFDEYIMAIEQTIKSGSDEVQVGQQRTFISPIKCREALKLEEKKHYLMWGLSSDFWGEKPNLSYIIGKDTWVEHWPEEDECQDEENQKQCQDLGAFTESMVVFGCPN

B1: MTSP-1 protease domain Q38H/I41A/D96R/ins97aQ/C122S (enzyme)
chain: VVGGTDADEGEWPWQVSLHALGHGHACGASLISPNWLVSAAHCYIDDRGFRYSDPTQWTAFLGLHDQSQRSAPGVQERRLKRIISHPFFNRFQTFDYDIALLELEKPAEYSSMVRPISLPDASHVFPAGKAIWVTGWGHTQYGGTGALILQKGEIRVINQTTCENLLPQQITPRMMCVGFLSGGVDSCQGDSGGPLSSVEADGRIFQAGVVSWGDGCAQRNKPGVYTRLPLFRDWIKENTGV
- EC50 hC3 cleavage: 7.6 nM

B2: MTSP-1 protease domain L33M/Q38F/I41S/D96A/ins97aW/C122S/G151N/Q192S (enzyme)
chain: VVGGTDADEGEWPWQVSMHALGFGHSCGASLISPNWLVSAAHCYIDDRGFRYSDPTQWTAFLGLHDQSQRSAPGVQERRLKRIISHPFFNAFWTFDYDIALLELEKPAEYSSMVRPISLPDASHVFPAGKAIWVTGWGHTQYGGTNALILQKGEIRVINQTTCENLLPQQITPRMMCVGFLSGGVDSCSGDSGGPLSSVEADGRIFQAGVVSWGDGCAQRNKPGVYTRLPLFRDWIKENTGV
- EC50 hC3 cleavage: 10.6 nM

B3: MTSP-1 protease domain Q38H/I41S/D96Q/ins97aA/C122S/Q192T (enzyme)
chain: VVGGTDADEGEWPWQVSLHALGHGHSCGASLISPNWLVSAAHCYIDDRGFRYSDPTQWTAFLGLHDQSQRSAPGVQERRLKRIISHPFFNQFATFDYDIALLELEKPAEYSSMVRPISLPDASHVFPAGKAIWVTGWGHTQYGGTGALILQKGEIRVINQTTCENLLPQQITPRMMCVGFLSGGVDSCTGDSGGPLSSVEADGRIFQAGVVSWGDGCAQRNKPGVYTRLPLFRDWIKENTGV
- EC50 hC3 cleavage: 10.2 nM

B4: MTSP-1 protease domain Q38H/I41S/D96V/ins97aA/C122S/G151N/Q192A (enzyme)
chain: VVGGTDADEGEWPWQVSLHALGHGHSCGASLISPNWLVSAAHCYIDDRGFRYSDPTQWTAFLGLHDQSQRSAPGVQERRLKRIISHPFFNVFATFDYDIALLELEKPAEYSSMVRPISLPDASHVFPAGKAIWVTGWGHTQYGGTNALILQKGEIRVINQTTCENLLPQQITPRMMCVGFLSGGVDSCAGDSGGPLSSVEADGRIFQAGVVSWGDGCAQRNKPGVYTRLPLFRDWIKENTGV
- EC50 hC3 cleavage: 16 nM

B5: MTSP-1 protease domain Q38H/I41T/D96K/ins97aL/C122S/G151N/Q192A (enzyme)
chain: VVGGTDADEGEWPWQVSLHALGHGHTCGASLISPNWLVSAAHCYIDDRGFRYSDPTQWTAFLGLHDQSQRSAPGVQERRLKRIISHPFFNKFLTFDYDIALLELEKPAEYSSMVRPISLPDASHVFPAGKAIWVTGWGHTQYGGTNALILQKGEIRVINQTTCENLLPQQITPRMMCVGFLSGGVDSCAGDSGGPLSSVEADGRIFQAGVVSWGDGCAQRNKPGVYTRLPLFRDWIKENTGV
- EC50 hC3 cleavage: 44.7 nM

B6: MTSP-1 protease domain Q38F/I41V/D96Q/ins97aT/C122S/G151D (enzyme)
chain: VVGGTDADEGEWPWQVSLHALGFGHVCGASLISPNWLVSAAHCYIDDRGFRYSDPTQWTAFLGLHDQSQRSAPGVQERRLKRIISHPFFNQFTTFDYDIALLELEKPAEYSSMVRPISLPDASHVFPAGKAIWVTGWGHTQYGGTDALILQKGEIRVINQTTCENLLPQQITPRMMCVGFLSGGVDSCQGDSGGPLSSVEADGRIFQAGVVSWGDGCAQRNKPGVYTRLPLFRDWIKENTGV
- EC50 hC3 cleavage: 9.89 nM

B7: MTSP-1 protease domain Q38W/I41V/D96R/ins97aA/C122S/G151N (enzyme)
chain: VVGGTDADEGEWPWQVSLHALGWGHVCGASLISPNWLVSAAHCYIDDRGFRYSDPTQWTAFLGLHDQSQRSAPGVQERRLKRIISHPFFNRFATFDYDIALLELEKPAEYSSMVRPISLPDASHVFPAGKAIWVTGWGHTQYGGTNALILQKGEIRVINQTTCENLLPQQITPRMMCVGFLSGGVDSCQGDSGGPLSSVEADGRIFQAGVVSWGDGCAQRNKPGVYTRLPLFRDWIKENTGV
- EC50 hC3 cleavage: 4.49 nM

B8: MTSP-1 protease domain Q38Y/I41T/D96M/ins97aS/C122S/G151N (enzyme)
chain: VVGGTDADEGEWPWQVSLHALGYGHTCGASLISPNWLVSAAHCYIDDRGFRYSDPTQWTAFLGLHDQSQRSAPGVQERRLKRIISHPFFNMFSTFDYDIALLELEKPAEYSSMVRPISLPDASHVFPAGKAIWVTGWGHTQYGGTNALILQKGEIRVINQTTCENLLPQQITPRMMCVGFLSGGVDSCQGDSGGPLSSVEADGRIFQAGVVSWGDGCAQRNKPGVYTRLPLFRDWIKENTGV
- EC50 hC3 cleavage: 12.5 nM
